The values that follow come from patent US20020004485A1.

Square brackets hold non-standard residues; d marks the D form. Ends that are not written are not given here. * marks the point of attachment. Benzoyl(3-OMe) = COc1cccc(C(=O)*)c1; Benzoyl(4-OMe) = COc1ccc(C(=O)*)cc1; d2Thi = N[C@H](Cc1cccs1)C(=O)O; dNal = D-naphthylalanine A value given as a limit tells only on which side of the number the result lay.

The target in this experiment is MC receptor endogenous to Xenopus laevis melanophores (Xenopus laevis). The experiment in a line: cell-based or functional assay.

B1: SQW-2 (peptide)
peptide: {Benzoyl(4-OMe)}-RRI[dR]P[dK][dL]-NH2
SMILES: CC[C@H](C)[C@H](NC(=O)[C@H](CCCNC(=N)N)NC(=O)[C@H](CCCNC(=N)N)NC(=O)c1ccc(OC)cc1)C(=O)N[C@H](CCCNC(=N)N)C(=O)N1CCC[C@H]1C(=O)N[C@H](CCCCN)C(=O)N[C@H](CC(C)C)C(N)=O
As for B1, the MCR IC50 nM: antagonism of α-MSH (600 pM) darkening of frog melanophores was found to be 114 nM.

B2: SQW-7 (peptide)
peptide: {Benzoyl(3-OMe)}-ARIRPKL-NH2
SMILES: CC[C@H](C)[C@H](NC(=O)[C@H](CCCNC(=N)N)NC(=O)[C@H](C)NC(=O)c1cccc(OC)c1)C(=O)N[C@@H](CCCNC(=N)N)C(=O)N1CCC[C@H]1C(=O)N[C@@H](CCCCN)C(=O)N[C@@H](CC(C)C)C(N)=O
Consider B2, for which the MCR IC50 nM: antagonism of α-MSH (600 pM) darkening of frog melanophores was found to be 110 nM.

In the case of SEEPPISLDLTFHLLREVLEMARAEQLAQQAHSNRKLMEII (peptide, UniProt P06850 154-194, looked up) [human CRH], the IC50 in the frog MCR assay is 10000 nM.

B3: SQW-3 (peptide)
peptide: {Benzoyl(4-OMe)}-R[dR]I[dR]P[dK][dL]-NH2
SMILES: CC[C@H](C)[C@H](NC(=O)[C@@H](CCCNC(=N)N)NC(=O)[C@H](CCCNC(=N)N)NC(=O)c1ccc(OC)cc1)C(=O)N[C@H](CCCNC(=N)N)C(=O)N1CCC[C@H]1C(=O)N[C@H](CCCCN)C(=O)N[C@H](CC(C)C)C(N)=O
As for B3, the MCR IC50 nM: antagonism of α-MSH (600 pM) darkening of frog melanophores is 156 nM.

B4: S-117 (peptide)
peptide: {Benzoyl(4-OMe)}-RKLL[dW]I[dL]-NH2
SMILES: CC[C@H](C)[C@H](NC(=O)[C@@H](Cc1c[nH]c2ccccc12)NC(=O)[C@H](CC(C)C)NC(=O)[C@H](CC(C)C)NC(=O)[C@H](CCCCN)NC(=O)[C@H](CCCNC(=N)N)NC(=O)c1ccc(OC)cc1)C(=O)N[C@H](CC(C)C)C(N)=O
B4 returned an MCR Antagonism IC50 nM In Xenopus of 22 nM.

B5: SQW-10 (peptide)
peptide: {Benzoyl(3-OMe)}-RRIAPKL-NH2
SMILES: CC[C@H](C)[C@H](NC(=O)[C@H](CCCNC(=N)N)NC(=O)[C@H](CCCNC(=N)N)NC(=O)c1cccc(OC)c1)C(=O)N[C@@H](C)C(=O)N1CCC[C@H]1C(=O)N[C@@H](CCCCN)C(=O)N[C@@H](CC(C)C)C(N)=O
Turning to B5, the MCR IC50 nM: antagonism of α-MSH (600 pM) darkening of frog melanophores was found to be 187 nM.

B6: S-167 (peptide)
peptide: {Benzoyl(4-OMe)}-AKLL[d2Thi]I[dL]-NH2
SMILES: CC[C@H](C)[C@H](NC(=O)[C@@H](Cc1cccs1)NC(=O)[C@H](CC(C)C)NC(=O)[C@H](CC(C)C)NC(=O)[C@H](CCCCN)NC(=O)[C@H](C)NC(=O)c1ccc(OC)cc1)C(=O)N[C@H](CC(C)C)C(N)=O
The molecule B6 displayed an MCR Antagonism IC50 nM In Xenopus of 1200 nM.

B7: S-118 (peptide)
peptide: {Benzoyl(4-OMe)}-AKLL[d2Thi]I[dL]-NH2
SMILES: CC[C@H](C)[C@H](NC(=O)[C@@H](Cc1cccs1)NC(=O)[C@H](CC(C)C)NC(=O)[C@H](CC(C)C)NC(=O)[C@H](CCCCN)NC(=O)[C@H](C)NC(=O)c1ccc(OC)cc1)C(=O)N[C@H](CC(C)C)C(N)=O
Take B7: the MCR Antagonism IC50 nM In Xenopus was 96 nM.

Take Ac-RYYRWK-NH2 [Ac-Arg-Tyr-Tyr-Arg-Trp-Lys-NH2]: the IC50 nM in Frog Melanophore Assay turned out to be 1050 nM.

B8: SQW-11 (peptide)
peptide: {Benzoyl(3-OMe)}-RRIRAKL-NH2
SMILES: CC[C@H](C)[C@H](NC(=O)[C@H](CCCNC(=N)N)NC(=O)[C@H](CCCNC(=N)N)NC(=O)c1cccc(OC)c1)C(=O)N[C@@H](CCCNC(=N)N)C(=O)N[C@@H](C)C(=O)N[C@@H](CCCCN)C(=O)N[C@@H](CC(C)C)C(N)=O
Consider B8, for which the MCR IC50 nM: antagonism of α-MSH (600 pM) darkening of frog melanophores stood at 188 nM.

B9: S-166 (peptide)
peptide: {Benzoyl(4-OMe)}-RALL[d2Thi]I[dL]-NH2
SMILES: CC[C@H](C)[C@H](NC(=O)[C@@H](Cc1cccs1)NC(=O)[C@H](CC(C)C)NC(=O)[C@H](CC(C)C)NC(=O)[C@H](C)NC(=O)[C@H](CCCNC(=N)N)NC(=O)c1ccc(OC)cc1)C(=O)N[C@H](CC(C)C)C(N)=O
Turning to B9, the MCR Antagonism IC50 nM In Xenopus was 1200 nM.

B10: S-160 (peptide)
peptide: {Benzoyl(4-OMe)}-RKAL[d2Thi]I[dL]-NH2
SMILES: CC[C@H](C)[C@H](NC(=O)[C@@H](Cc1cccs1)NC(=O)[C@H](CC(C)C)NC(=O)[C@H](C)NC(=O)[C@H](CCCCN)NC(=O)[C@H](CCCNC(=N)N)NC(=O)c1ccc(OC)cc1)C(=O)N[C@H](CC(C)C)C(N)=O
As to B10, the MCR Antagonism IC50 nM In Xenopus was found to be 197 nM.

The molecule {Benzoyl(4-OMe)}-RKLL[dNal]I[dL]-NH2 [S-114] showed an MCR Antagonism IC50 nM In Xenopus of 166 nM.

B11: mystixin-7 (S-21) (peptide)
peptide: {Benzoyl(4-OMe)}-RKLL[d2Thi]I[dL]-NH2
SMILES: CC[C@H](C)[C@H](NC(=O)[C@@H](Cc1cccs1)NC(=O)[C@H](CC(C)C)NC(=O)[C@H](CC(C)C)NC(=O)[C@H](CCCCN)NC(=O)[C@H](CCCNC(=N)N)NC(=O)c1ccc(OC)cc1)C(=O)N[C@H](CC(C)C)C(N)=O
For the molecule B11, the MCR Antagonism IC50 nM In Xenopus came to 237 nM.

B12: S-165 (peptide)
peptide: {Benzoyl(4-OMe)}-RKLA[d2Thi]I[dL]-NH2
SMILES: CC[C@H](C)[C@H](NC(=O)[C@@H](Cc1cccs1)NC(=O)[C@H](C)NC(=O)[C@H](CC(C)C)NC(=O)[C@H](CCCCN)NC(=O)[C@H](CCCNC(=N)N)NC(=O)c1ccc(OC)cc1)C(=O)N[C@H](CC(C)C)C(N)=O
B12 had an MCR Antagonism IC50 nM In Xenopus of 282 nM.

B13: S-164 (peptide)
peptide: {Benzoyl(4-OMe)}-RKLL[dA]I[dL]-NH2
SMILES: CC[C@H](C)[C@H](NC(=O)[C@@H](C)NC(=O)[C@H](CC(C)C)NC(=O)[C@H](CC(C)C)NC(=O)[C@H](CCCCN)NC(=O)[C@H](CCCNC(=N)N)NC(=O)c1ccc(OC)cc1)C(=O)N[C@H](CC(C)C)C(N)=O
B13 showed an MCR Antagonism IC50 nM In Xenopus of 26 nM.

B14: Ac-Arg-Tyr-Tyr-Arg-D-Trp-Lys-NH2 (peptide)
peptide: Ac-RYYR[dW]K-NH2
SMILES: CC(=O)N[C@@H](CCCNC(=N)N)C(=O)N[C@@H](Cc1ccc(O)cc1)C(=O)N[C@@H](Cc1ccc(O)cc1)C(=O)N[C@@H](CCCNC(=N)N)C(=O)N[C@H](Cc1c[nH]c2ccccc12)C(=O)N[C@@H](CCCCN)C(N)=O
In turn, B14 registered an IC50 nM in Frog Melanophore Assay of 867 nM.

B15: p-Anisoyl-Arg-Tyr-Tyr-Arg-D-Trp-Lys-NH2 (peptide)
peptide: {Benzoyl(4-OMe)}-RYYR[dW]K-NH2
SMILES: COc1ccc(C(=O)N[C@@H](CCCNC(=N)N)C(=O)N[C@@H](Cc2ccc(O)cc2)C(=O)N[C@@H](Cc2ccc(O)cc2)C(=O)N[C@@H](CCCNC(=N)N)C(=O)N[C@H](Cc2c[nH]c3ccccc23)C(=O)N[C@@H](CCCCN)C(N)=O)cc1
Molecule B15 gave an IC50 nM in Frog Melanophore Assay of 175 nM.

B16: S-163 (peptide)
peptide: {Benzoyl(4-OMe)}-RKLL[d2Thi]A[dL]-NH2
SMILES: COc1ccc(C(=O)N[C@@H](CCCNC(=N)N)C(=O)N[C@@H](CCCCN)C(=O)N[C@@H](CC(C)C)C(=O)N[C@@H](CC(C)C)C(=O)N[C@H](Cc2cccs2)C(=O)N[C@@H](C)C(=O)N[C@H](CC(C)C)C(N)=O)cc1
Molecule B16 displayed an MCR Antagonism IC50 nM In Xenopus of 234 nM.

B17: SQW-4 (peptide)
peptide: {Benzoyl(4-OMe)}-[dR][dR]I[dR]P[dK][dL]-NH2
SMILES: CC[C@H](C)[C@H](NC(=O)[C@@H](CCCNC(=N)N)NC(=O)[C@@H](CCCNC(=N)N)NC(=O)c1ccc(OC)cc1)C(=O)N[C@H](CCCNC(=N)N)C(=O)N1CCC[C@H]1C(=O)N[C@H](CCCCN)C(=O)N[C@H](CC(C)C)C(N)=O
For the molecule B17, the MCR IC50 nM: antagonism of α-MSH (600 pM) darkening of frog melanophores was 17 nM.

B18: SQW-8 (peptide)
peptide: {Benzoyl(3-OMe)}-RAIRPKL-NH2
SMILES: CC[C@H](C)[C@H](NC(=O)[C@H](C)NC(=O)[C@H](CCCNC(=N)N)NC(=O)c1cccc(OC)c1)C(=O)N[C@@H](CCCNC(=N)N)C(=O)N1CCC[C@H]1C(=O)N[C@@H](CCCCN)C(=O)N[C@@H](CC(C)C)C(N)=O
Turning to B18, the MCR IC50 nM: antagonism of α-MSH (600 pM) darkening of frog melanophores amounted to 75 nM.

QGPPISIDLSLELLRKMIEIEKQEKEKQQAANNRLLLDTI (peptide, UniProt P01144 1-40, looked up) [sauvagine] returned an IC50 in the frog MCR assay of over 10000 nM.

B19: SQW-9 (peptide)
peptide: {Benzoyl(3-OMe)}-RRARPKL-NH2
SMILES: COc1cccc(C(=O)N[C@@H](CCCNC(=N)N)C(=O)N[C@@H](CCCNC(=N)N)C(=O)N[C@@H](C)C(=O)N[C@@H](CCCNC(=N)N)C(=O)N2CCC[C@H]2C(=O)N[C@@H](CCCCN)C(=O)N[C@@H](CC(C)C)C(N)=O)c1
Regarding B19, the MCR IC50 nM: antagonism of α-MSH (600 pM) darkening of frog melanophores was found to be 155 nM.

B20: S-116 (peptide)
peptide: {Benzoyl(4-OMe)}-RKLL[dY]I[dL]-NH2
SMILES: CC[C@H](C)[C@H](NC(=O)[C@@H](Cc1ccc(O)cc1)NC(=O)[C@H](CC(C)C)NC(=O)[C@H](CC(C)C)NC(=O)[C@H](CCCCN)NC(=O)[C@H](CCCNC(=N)N)NC(=O)c1ccc(OC)cc1)C(=O)N[C@H](CC(C)C)C(N)=O
Molecule B20 yielded an MCR Antagonism IC50 nM In Xenopus of 77 nM.

B21: S-162 (peptide)
peptide: {Benzoyl(4-OMe)}-RKLL[d2Thi]I[dA]-NH2
SMILES: CC[C@H](C)[C@H](NC(=O)[C@@H](Cc1cccs1)NC(=O)[C@H](CC(C)C)NC(=O)[C@H](CC(C)C)NC(=O)[C@H](CCCCN)NC(=O)[C@H](CCCNC(=N)N)NC(=O)c1ccc(OC)cc1)C(=O)N[C@H](C)C(N)=O
Regarding B21, the MCR Antagonism IC50 nM In Xenopus came to 43 nM.

On to QGKRPWIL (peptide, UniProt P07198 74-81, looked up, ends and bridges not checked) [xenopsin], for which the IC50 in the frog MCR assay is over 10000 nM.
